Test: soluble on expression in E. coli; label from the status in PepcDB or PDB records

Sequence	soluble on expression in E. coli
MSKLMQNPVLHELKKQASFFIKEKIKTARLAVTDVTAEELLTEEVTGSDHSSIDSRSMAAITRVSFEVDQFQRIVKILRQRMVVFDRKEWRGMCNTLSMLNHLLLNGPLSVFSEFQHERAIIEDAIKMEWIDERGFDCGLKVRNIAEKVLRLLEDDMFLKDERERNRKQSIGRITGFGNSSFVIHSETNNGRDGSLMLSNHQTCENDCIADDHPFVENEHKTAQLLLSSST	soluble
GAMEVIKNPKVFIDPLSVFKEIPFREDILRDAAIAIRYFVKNEVKFSNLFLGLTGTGKTFVSKYIFNEIEEVKKEDEEYKDVKQAYVNCREVGGTPQAVLSSLAGKLTGFSVPKHGINLGEYIDKIKNGTRNIRAIIYLDEVDTLVKRRGGDIVLYQLLRSDANISVIMISNDINVRDYMEPRVLSSLGPSVIFKPYDAEQLKFILSKYAEYGLIKGTYDDEILSYIAAISAKEHGDARKAVNLLFRAAQLASGGGIIRKEHVDKAIVDYEQERLIEAVKALPFHYKLALRSLIESEDVMSAHKMYTDLCNKFKQKPLSYRRFSDIISELDMFGIVKIRIINRGRAGGVKKYALVEDKEKVLRALNETFEDSISIGDFDDVGEN	soluble
MLLMKTASKTNNSVRRNMNTHSAISELIAPWLELTDPKLAALVITHLELDSRLIKSGDTFVAIQGHAVDGRQFIDKAIAQGANLVLAEADAQHLNGWVEYRAGVPVIYLAELGQHLSELAGRLYGGHHNQLIGVTGTNGKTTITQLIAQWLELLGHKAAVMGTTGNGFLNALEPAANTTGNALQIQATLRDLAERGAQYTALETSSHGLVQGRVKKLHFVAGVFSNLSRDHLDYHGTMEAYAAAKFSLFSEHACQNAIINVDDAVGAQWVKQLPQAIGVSLVTKPNTAQAIWAREVAYAESGITLNFESSWGEGELHAPLIGEFNACNLLLALATLLSLGFEKSALLATAPKLRPVLGRMELFQREQKAKMVVDYAHTPDALEKALRALRVHCAGQLWAIVGCGGDRDRGKRPMMAAIAEQFADRVILTDDNPRSESPQAIVADMVAGLTYPERAHIEHHRFQAASYALQHAGAQDIILLAGKGHEDYQVLANETIHYSDRETAQQLLELQP	not soluble
MNKKKFENLPKWNNFALFNFLAKDKENSLEVMVAARGFAVPGIVATNYETAEEAANVVKELQTTAEVISVGLGGGGDWQNWRDVLHIARLAPNSHINQPIETAGLTNGLLPETYTNALVRPTGKVGIVKLSSGDEITAEEAVDYCLSANIPSIKFMSIEGTKYLDELVYLTKIAADKGIYGIEPAGGIGADNILEITTAIKSTGIPFYMPHIFGKTIDKATGRTKPEEIEKIFAALEGN	soluble
MSLDEKKLKALAVELAKGLKTEADLNSFSRMLAKLTVETVLNAELADHPGYEKNAPKTGSNTRNGYSSKTVLCDDGEIELNTPRDRENTFEPQLLKKHQTRITQMDSQILSLYAKGMTTREIVATFKEMYDANVSPSLISKVTDAVKEQVTERQNRQPDALYPIVYMDCIVVKVRQNGSVINKAVFLALGINTEGQKELLGMWLAENEGEKFWLSVLTELKTRGVQDILIACVDGLKGFPDAINSVFPQPHIQLCIIHMVRNSLKYVAWKGYKVATSGLRLRPKRRHEGHHHHHH	not soluble
MKKGTPLPHSDELDAGNVLAVENLNIAFMQDQQKIAAVRNLSFSLQRGETLAIVGESGSGKSVTALALMRLLEQAGGLVQCDKMLLQRRSREVIELSEQNAAQMRHVRGADMAMIFQEPMTSLNPVFTVGEQIAESIRLHQNASREEAMVEAKRMLDQVRIPEAQTILSRYPHQLSGGMRQRVMIAMALSCRPAVLIADEPTTALDVTIQAQILQLIKVLQKEMSMGVIFITHDMGVVAEIADRVLVMYQGEAVETGTVEQIFHAPQHPYTRALLAAVPQLGAMKGLDYPRRFPLISLEHPAKQAPPIEQKTVVDGEPVLRVRNLVTRFPLRSGLLNRVTREVHAVEKVSFDLWPGETLSLVGESGSGKSTTGRALLRLVESQGGEIIFNGQRIDTLSPGKLQALRRDIQFIFQDPYASLDPRQTIGDSIIEPLRVHGLLPGKDAAARVAWLLERVGLLPEHAWRYPHEFSGGQRQRICIARALALNPKVIIADEAVSALDVSIRGQIINLLLDLQRDFGIAYLFISHDMAVVERISHRVAVMYLGQIVEIGPRRAVFENPQHPYTRKLLAAVPVAEPSRQRPQRVLLSDDLPSNIHLRGEEVAAVSLQCVGPGHYVAQPQSEYAFMRR	not soluble
MISTPPVARNIMRCMSDQLKLDQQICFQLYTGSRLMQRMYRVYFDQWGITYSQYLVLLLLWEKDRQTISELSDPLDLDSGTLSPLLRRMEANGFITREHEQSDYRKVVVCLTTRGRRLKTKAKKMNDELNDMLGFDDADLAAVTRVLEKINPSAAI	not soluble
MDMKKWLVATALIATTISGVTQAKEWKTVRFGIEGAYPPFSWTEADGSLKGFDVDMANALCAEMQVECKIVPQDWDGIIPSLLARKYDAIIAAMSITEERKKKVDFTGKYAQIPNKFIAKKGADLAFTKEGLKGVKIGVQRATTHDKYITDNYGDTVDIVRYGSFDEAYLDLANGRIAAVLGDASALEEGMLNKPGGDAYEFVGPSLTDPKWFGEGMGIAVRKQDKELTEKLDAAITALREKGIYQQIQAKYFKYDVYGE	not soluble
MGSDKIHHHHHHMKQKNYHSCTVGQIVAGNFDTTKVFSRYHIDFCCHGNTPFAEACRNRGIDPEAVAHELNELQENTVSNAPDFAGWPIDLLIDYVLKIHHRGIRAKGPQIEALLTKVTEAHSKNHPELLQVQALFRDSLLDLENHLSKEENVLFPYVYEMFQAKEEGLKVAKFHCGTILYPIEVMEDEHNHEGERFEKISSLTNGFTAPEDACASFRLVLQQLKQFEEALHEHIHLENNIIFPRALELEKKEAI	not soluble
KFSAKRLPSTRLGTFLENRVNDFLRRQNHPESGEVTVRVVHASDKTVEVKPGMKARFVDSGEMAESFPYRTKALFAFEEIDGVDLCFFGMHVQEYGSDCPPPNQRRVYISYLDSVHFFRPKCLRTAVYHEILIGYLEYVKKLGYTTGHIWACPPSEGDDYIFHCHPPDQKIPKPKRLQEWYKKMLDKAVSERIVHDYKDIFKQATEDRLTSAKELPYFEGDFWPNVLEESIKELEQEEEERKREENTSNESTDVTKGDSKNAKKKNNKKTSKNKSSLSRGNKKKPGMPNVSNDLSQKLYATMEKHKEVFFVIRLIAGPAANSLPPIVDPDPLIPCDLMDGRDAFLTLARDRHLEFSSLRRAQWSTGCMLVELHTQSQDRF	soluble
MGSDKIHHHHHHMKVFVIGAGLMGRGIAIAIASKHEVVLQDVSEKALEAAREQIPEELLSKIEFTTTLEKVKDCDIVMEAVFEDLNTKVEVLREVERLTNAPLCSNTSVISVDDIAERLDSPSRFLGVHWMNPPHVMPLVEIVISRFTDSKTVAFVEGFLRELGKEVVVCKGQSLVNRFNAAVLSEASRMIEEGVRAEDVDRVWKHHLGLLYTLFGPLGNLDYIGLDVAYYASLYLYKRFGDEKFKPPEWLQEKIKKGEVGVKAGKGIYEYGPKAYEERVERLKKLLRFLGLE	soluble
MGHHHHHHSHREMVLQFLAFSRVAQDCRGTSWPKTVYFTFQFYRFPPATTPRLQLVQLDEAGQPSSGALTHILVPVSRDGTFDAGSPGFQLRYMVGPGFLKPGERRCFARYLAVQTLQIDVWDGDSLLLIGSAAVQMKETSHIFSVSQ	not soluble
MDLYYRPGSAPCRSVLMTAKALGVEFDKKTIINTRAREQFTPEYLKINPQHTIPTLHDHGFALWESRAIMVYLVEKYGKDDKLFPKDVQKQALINQRLYFDMGTLYKSFSEYYYPQIFLKKPANEENYKKIEVAFEFLNTFLEGQTYSAGGDYSLADIAFLATVSTFDVAGFDFKRYANVARWYENAKKLTPGWEENWAGCQEFRKYFDN	soluble
MGHHHHHHSHMFYLAAAVSDFYVPVSEMPEHKIQSSGGPLQITMKMVPKLLSPLVKDWAPKAFIISFKLETDPAIVINRARKALEIYQHQVVVANILESRQSFVFIVTKDSETKLLLSEEEIEKGVEIEEKIVDNLQSRHTAFIGDRN	not soluble
RQVQKELGDVLVRLHNPVVLTPTTVQVTWTVDRQPQFIQGYRVMYRQTSGLQATSSWQNLDAKVPTERSAVLVNLKKGVTYEIKVRPYFNEFQGMDSESKTVRTTEE	soluble

Source: the DeepSol protein solubility set
